Assay results from paper PMC11996885, “Identification of potent biparatopic antibodies targeting FGFR2 fusion–driven cholangiocarcinoma” (The Journal of Clinical Investigation, 2025).

How the values were obtained:
[1] = biological target: T1, hFGFR2 ECD 22-378 His-tag (human, UniProt P21802-3, biotin (Abcam Biotinylation Kit) in the epitope binning only); assay: BLI; Octet RED96e, 25°C, 1,000 rpm, 1x kinetic buffer; antibodies captured on anti-human Fc (AHC) biosensors at 0.5 ug/mL; hFGFR2 ECD 22-378 His-tag as analyte, 7 2-fold dilutions from 100 nM; association 300 s, dissociation 600 s; 1:1 model, global fit; apparent Kd for the biparatopic antibodies; conditions: both partners purified
T1 construct: human FGFR2 extracellular domain, residues 22-378, SinoBiological 16485-H08H; also called hFGFR2 ECD AA22-AA378 His-tag; source: bought: SinoBiological

[2] = biological target: T2, full-length FGFR2-BICC1 on NIH3T3 cells (Homo sapiens, UniProt P21802-3, chimera); assay: flow cytometry on cells; NIH3T3 cells expressing full-length FGFR2-BICC1 or its D1, D2, D3 or D2+D3 deletion variants, parental antibody A-F at 10 μg/mL in 1x PBS (Mg2+ free), 1.5 hours at room temperature; anti-human IgG secondary antibody; conditions: one partner purified
T2 construct: FGFR2 part of the fusion, from its N-terminus with the extracellular domain to the breakpoint; the printed Gln361 fits the IIIb isoform (FGFR2b); BICC1 part of the fusion; also called FL; source: NIH3T3, transfected, on cells

[3] = biological target: T3, hFGFR2 ECD 22-378 His-tag (Homo sapiens, UniProt P21802-3, biotin in the epitope binning only (Abcam Biotinylation Kit)); assay: BLI; Octet RED96e, 25°C, 1x kinetic buffer; antibodies captured on Anti-Human Fc capture biosensor at 0.5 μg/mL; hFGFR2 ECD 22-378 His-tag as analyte, 2-fold dilutions from 100 nM; 1:1 binding model; apparent affinity; conditions: both partners purified
T3 construct: human FGFR2 extracellular domain, residues 22-378; The antigen of the MSD-SET assay and the FGFR2 ECD of the SEC-MALS experiment are not described; also called hFGFR2 ECD AA22-AA378 His-tag; antigen; source: bought: SinoBiological

[4] = biological target: T4, FGFR2 on SNU16 cells (FGFR2 amplification) (Homo sapiens (SNU-16, endogenous), UniProt P21802-3); assay: flow cytometry on cells; SNU-16 cells incubated with serial dilutions of parental antibody A-F in 1x PBS (Mg2+ free), 1.5 hours at room temperature; anti-human IgG secondary antibody; fit with a ligand-binding quadratic equation; apparent Kd; conditions: one partner purified
T4 construct: FGFR2 endogenous on SNU16 cells; source: endogenous, SNU16 cells

[5] = biological target: T5, hFGFR2 ECD 22-378 His-tag (Homo sapiens, UniProt P21802-3); assay: BLI; Octet RED96e, 25 C, 1,000 rpm, 1x kinetic buffer; antibody captured on anti-human Fc (AHC) biosensor at 0.5 ug/mL; hFGFR2 ECD 22-378 His-tag as analyte, 7 two-fold dilutions from 100 nM; 1:1 model, global fit; apparent; conditions: both partners purified
T5 construct: FGFR2, human, extracellular domain residues 22-378 (SinoBiological 16485-H08H); Analyte of the BLI kinetics; also called hFGFR2 ECD AA22-AA378 His-tag; source: bought: SinoBiological

T1 sequence (P21802 other isoform, or with tags, fused parts or gaps): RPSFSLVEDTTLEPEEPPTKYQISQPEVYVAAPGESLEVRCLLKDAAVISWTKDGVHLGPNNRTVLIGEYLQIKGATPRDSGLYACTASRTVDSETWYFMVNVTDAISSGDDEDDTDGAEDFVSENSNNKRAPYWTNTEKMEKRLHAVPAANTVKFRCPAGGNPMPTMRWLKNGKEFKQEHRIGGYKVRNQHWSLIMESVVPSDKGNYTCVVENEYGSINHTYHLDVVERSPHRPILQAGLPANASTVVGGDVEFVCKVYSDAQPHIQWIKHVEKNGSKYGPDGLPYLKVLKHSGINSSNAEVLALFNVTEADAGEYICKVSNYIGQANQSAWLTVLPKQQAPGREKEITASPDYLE
T3 sequence (P21802 other isoform, or with tags, fused parts or gaps): as above
T4 sequence (P21802 22-821): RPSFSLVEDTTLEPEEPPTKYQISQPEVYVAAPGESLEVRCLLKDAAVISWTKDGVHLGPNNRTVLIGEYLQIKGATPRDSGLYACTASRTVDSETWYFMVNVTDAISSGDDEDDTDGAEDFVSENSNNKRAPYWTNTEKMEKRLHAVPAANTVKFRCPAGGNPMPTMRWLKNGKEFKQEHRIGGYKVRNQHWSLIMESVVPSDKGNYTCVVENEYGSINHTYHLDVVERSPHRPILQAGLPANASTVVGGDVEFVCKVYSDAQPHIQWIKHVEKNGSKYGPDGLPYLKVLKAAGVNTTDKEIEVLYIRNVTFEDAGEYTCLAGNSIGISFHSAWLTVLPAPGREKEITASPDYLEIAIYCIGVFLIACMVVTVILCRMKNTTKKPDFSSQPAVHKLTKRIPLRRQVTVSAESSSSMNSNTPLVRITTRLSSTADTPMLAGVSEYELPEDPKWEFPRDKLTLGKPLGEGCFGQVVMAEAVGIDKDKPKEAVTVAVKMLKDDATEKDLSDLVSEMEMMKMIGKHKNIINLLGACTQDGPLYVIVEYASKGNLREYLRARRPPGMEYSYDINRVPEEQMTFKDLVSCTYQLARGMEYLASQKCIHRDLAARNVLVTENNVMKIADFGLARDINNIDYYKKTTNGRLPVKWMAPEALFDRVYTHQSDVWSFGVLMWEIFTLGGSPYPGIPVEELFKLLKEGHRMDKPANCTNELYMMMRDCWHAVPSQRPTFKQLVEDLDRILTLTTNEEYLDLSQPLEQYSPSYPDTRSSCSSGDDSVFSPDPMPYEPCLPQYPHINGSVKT
T2 sequence (P21802 whole entry, looked up, stated change not applied, the tested form may be a part, canonical isoform): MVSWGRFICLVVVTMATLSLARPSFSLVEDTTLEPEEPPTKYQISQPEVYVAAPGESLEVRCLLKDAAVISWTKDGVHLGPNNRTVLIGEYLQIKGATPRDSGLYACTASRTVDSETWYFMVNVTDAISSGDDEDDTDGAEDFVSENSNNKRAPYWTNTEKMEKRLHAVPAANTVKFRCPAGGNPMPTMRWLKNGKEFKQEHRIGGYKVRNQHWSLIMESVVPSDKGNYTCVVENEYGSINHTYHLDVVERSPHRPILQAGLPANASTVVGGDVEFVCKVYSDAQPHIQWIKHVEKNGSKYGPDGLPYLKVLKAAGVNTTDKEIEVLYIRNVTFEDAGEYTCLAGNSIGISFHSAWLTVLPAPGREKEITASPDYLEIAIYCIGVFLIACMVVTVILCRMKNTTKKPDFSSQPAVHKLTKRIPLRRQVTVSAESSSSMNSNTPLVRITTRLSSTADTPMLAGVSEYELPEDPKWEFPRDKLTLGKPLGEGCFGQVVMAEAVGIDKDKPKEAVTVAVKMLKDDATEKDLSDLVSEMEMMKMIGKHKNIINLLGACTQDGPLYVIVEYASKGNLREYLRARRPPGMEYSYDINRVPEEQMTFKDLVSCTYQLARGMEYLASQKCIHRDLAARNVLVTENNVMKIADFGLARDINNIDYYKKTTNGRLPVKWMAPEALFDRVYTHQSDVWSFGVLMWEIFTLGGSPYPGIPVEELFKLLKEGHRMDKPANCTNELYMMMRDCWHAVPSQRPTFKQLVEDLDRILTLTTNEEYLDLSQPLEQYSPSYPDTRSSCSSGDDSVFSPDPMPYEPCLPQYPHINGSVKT

B1: Anti-FGFR2 parental antibody B (antibody, V domains shown)
VH: QIQLVQSGPELKKPGETVKISCKASGYTFTDFGMNWMKQAPGKGFKWMGWINTSTGESTYADDFKGRFAFSLETSASTAYLQINNLKNEDMATYFCARNSYYGGSYGYWGQGTTLTVSS
VL: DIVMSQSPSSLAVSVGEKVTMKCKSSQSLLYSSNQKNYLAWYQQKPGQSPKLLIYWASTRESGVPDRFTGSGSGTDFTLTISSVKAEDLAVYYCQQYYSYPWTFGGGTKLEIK
notes: VH of antibody B; VL of antibody B; Full human IgG1; also produced with F405L or K409R in the Fc for Fab-arm exchange; The label 'Gal' in some supplementary panels probably means B; also called Ab-B; copies: 2 + 2
- Kd [1]: 5.5 nM
- koff [1]: 0.000316 s⁻¹
- kon [1]: 53100 M⁻¹ s⁻¹

B2: Anti-FGFR2 parental antibody C (antibody, V domains shown)
VH: QVQLVESGGGLVKPGGSLRLSCAASGFTFSSYALSWVRQAPGKGLEWVGRIRSKIDGGTTDYAAPVKGRFTISRDDSKNTLYLQMNSLKTEDTAVYYCARDRSPSDSSAFAIWGQGTLVTVSS
VL: DIELTQPPSVSVSPGQTASITCSGDNLGSQYVDWYQQKPGQAPVLVIYDDNDRPSGIPERFSGSNSGNTATLTISGTQAEDEADYYCQSWDSLSVVFGGGTKLTVL
notes: VH of antibody C; VL of antibody C; Full human IgG1; The label 'N10' in some supplementary panels probably means C; also called Ab-C; copies: 2 + 2
- Kd [1]: 7.05 nM
- koff [1]: 0.00292 s⁻¹
- kon [1]: 417000 M⁻¹ s⁻¹

B3: Anti-FGFR2 parental antibody D (antibody, V domains shown)
VH: EVQLVESGGGLVQPGGSLRLSCAASGFPFTSTGISWVRQAPGKGLEWVGRTHLGDGSTNYADSVKGRFTISADTSKNTAYLQMNSLRAEDTAVYYCARTYGIYDTYDMYTEYVMDYWGQGTLVTVSS
VL: DIQMTQSPSSLSASVGDRVTITCRASQDVDTSLAWYKQKPGKAPKLLIYSASFLYSGVPSRFSGSGSGTDFTLTISSLQPEDFATYYCQQSTGHPQTFGQGTKVEIK
notes: VH of antibody D; VL of antibody D; Full human IgG1; also produced with F405L or K409R in the Fc for Fab-arm exchange; The label 'GE' in some supplementary panels probably means D; also called Ab-D; copies: 2 + 2
- Kd [1]: 2.79 nM
- koff [1]: 0.000741 s⁻¹
- kon [1]: 282000 M⁻¹ s⁻¹

B4: FGFR2 parental antibody B (antibody, V domains shown)
VH: B1 VH
VL: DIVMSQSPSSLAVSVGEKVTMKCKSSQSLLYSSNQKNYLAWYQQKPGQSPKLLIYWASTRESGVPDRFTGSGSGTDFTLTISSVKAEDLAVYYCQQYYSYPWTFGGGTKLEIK
notes: heavy chain of antibody B, IgG1; light chain of antibody B; IgG1; One of the six parental antibodies is the parental antibody of bemarituzumab; also called Ab-B; copies: 2 + 2
- binding result [2]: binds

B5: FGFR2 parental antibody C (antibody, V domains shown)
VH: B2 VH
VL: B2 VL
notes: heavy chain of antibody C, IgG1; light chain of antibody C; IgG1; One of the six parental antibodies is the parental antibody of bemarituzumab; also called Ab-C; copies: 2 + 2
- binding result [2]: binds

B6: FGFR2 parental antibody D (antibody, V domains shown)
VH: B3 VH
VL: B3 VL
notes: heavy chain of antibody D, IgG1; light chain of antibody D; IgG1; One of the six parental antibodies is the parental antibody of bemarituzumab; also called Ab-D; copies: 2 + 2
- binding result [2]: binds

B7: FGFR2 parental antibody E (antibody, V domains shown)
VH: QVQLVQSGAEVKKPGSSVKVSCKASGYIFTTYNVHWVRQAPGQGLEWIGSIYPDNGDTSYNQNFKGRATITADKSTSTAYMELSSLRSEDTAVYYCARGDFAYWGQGTLVTVSS
VL: DIQMTQSPSSLSASVGDRVTITCKASQGVSNDYAWYQQKPGKAPKLLIYSASYRYTGVPSRFSGSGSGTDFTFTISSLQPEDIATYYCQQHSTTPYTFGQGTKLEIK
notes: heavy chain of antibody E, IgG1; light chain of antibody E; IgG1; One of the six parental antibodies is the parental antibody of bemarituzumab; Also used as the FGFR2 immunoblot reagent (Genscript); also called Ab-E; copies: 2 + 2
- binding result [3]: binds
- binding result [4]: binds
- binding result [2]: binds

B8: FGFR2 parental antibody A (antibody, V domains shown)
VH: EVQLLESGGGLVQPGGSLRLSCAASGFTFSSYAMSWVRQAPGKGLEWVSAISGSGTSTYYADSVKGRFTISRDNSKNTLYLQMNSLRAEDTAVYYCARVRYNWNHGDWFDPWGQGTLVTVSS
VL: QSVLTQPPSASGTPGQRVTISCSGSSSNIGNNYVSWYQQLPGTAPKLLIYENYNRPAGVPDRFSGSKSGTSASLAISGLRSEDEADYYCSSWDDSLNYWVFGGGTKLTVL
notes: heavy chain of antibody A, IgG1; light chain of antibody A; IgG1; One of the six parental antibodies is the parental antibody of bemarituzumab; also called Ab-A; copies: 2 + 2
- binding result [3]: binds
- binding result [4]: binds
- binding result [2]: binds

B9: FGFR2 parental antibody F (antibody, V domains shown)
VH: QVQLVQSGAEVKKPGESLKISCKGSGYSFTNYYIHWVRQMPGKGLEWMGAIYPDNSDTTYSPSFQGQVTISADKSISTAYLQWSSLKASDTAMYYCARGADIWGQGTLVTVSS
VL: DIQMTQSPSSLSASVGDRVTITCRASQDIDPYLSNWYQQKPGKAPKLLIYDASNLQSGVPSRFSGSGSGTDFTLTISSLQPEDFATYYCQQTTSHPYTFGQGTKVEIK
notes: heavy chain of antibody F, IgG1; light chain of antibody F; IgG1; One of the six parental antibodies is the parental antibody of bemarituzumab; also called Ab-F; copies: 2 + 2
- binding result [3]: binds
- binding result [4]: binds
- binding result [2]: binds

B10: anti-FGFR2 parental antibody B (antibody, V domains shown)
VH: B1 VH
VL: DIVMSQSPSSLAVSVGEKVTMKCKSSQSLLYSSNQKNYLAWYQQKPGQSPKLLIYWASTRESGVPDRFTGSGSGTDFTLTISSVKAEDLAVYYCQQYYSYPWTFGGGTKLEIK
notes: heavy chain of antibody B; light chain of antibody B; IgG1; also called Ab-B; copies: 2 + 2
- Kd [5]: 5.5 nM

B11: anti-FGFR2 parental antibody D (antibody, V domains shown)
VH: B3 VH
VL: B3 VL
notes: heavy chain of antibody D; light chain of antibody D; IgG1; also called Ab-D; copies: 2 + 2
- Kd [5]: 2.79 nM

B12: anti-FGFR2 parental antibody C (antibody, V domains shown)
VH: B2 VH
VL: B2 VL
notes: heavy chain of antibody C; light chain of antibody C; IgG1; also called Ab-C; copies: 2 + 2
- Kd [5]: 7.05 nM
